# Data: the RNAGym collection of RNA variant scans (doi:10.1073/pnas.2313332121)
# B1: TPR t1 (parent)
# chain: GACCAAUCUGCCCUCAGAGCUCGAGAACAUCUUCGGAUGCAGAGGAGGCAGGCUUCGGUGGCGCGAUAGCGCCAACGUCCUCAACCUCCAAUGCAUCCCACCACAUGAUGAUGCCUGAAGAGCCUUGGUUUUUUG
# Variants of: B1
# Assay: polymerase ribozyme fitness, log enrichment relative to wild type (log ratio); higher = more active; in vitro selection for triplet polymerase activity
# Method in brief: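 Fitness compares each genotype's enrichment to that of the wild type on a logarithmic scale, averaging replicates with inverse-variance weights. The logarithm is base 2. Enrichment came from Illumina sequencing of input and output libraries after one triplicate round of in vitro selection, which included frozen incubation at −7 °C, of PCR-built, transcribed mutant libraries of each subunit of a heterodimeric triplet polymerase ribozyme. Only genotypes with ≥10 input reads and ≥1 read per output were kept.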
row,Variant,polymerase ribozyme fitness (log ratio)
1,G93A G110A U112A,-2.76
2,C82U U112A U130G,0.499
3,A83C C101A,-1.18
4,A95C C101U U106A,-0.358
5,C88G C102U G117U,-6.89
6,A95C G120U,-0.765
7,C85U C94U,-1.2
8,A84U G110U,-1.34
9,G93A U96A,-1.69
10,C89A C94A C104U G110A,-4.47
11,A90U G93U,-1.11
12,C94A U129C,-0.753
13,A91G G110U,-2.66
14,C86A A111C,0.315
15,C88U C115A,-0.441
16,A83U C89A U96A,-2.34
17,U87C U96A,0.252
18,U87C G110U,-0.496
19,A83C C85A C115A G117A,-6.05
20,U92G G93C,-3.76
21,U87A U106A G113A,-2.17
22,U87A C88A G110U G127A,-3.99
23,U87G U92A G110A,-4.75
24,U92A A118U,-1.95

row,Variant,polymerase ribozyme fitness (log ratio)
1,C94U G135U,-1.34
2,A83U C101G,-1.74
3,C89G U109G,-5.16
4,C89G U109A,-5.37
5,C94A G110U,-2.28
6,C88U G120U U126G,-3.22
7,C89G U125A,-2.07
8,C89G U92A G122A,-4.41
9,A91U C101A,-2.72
10,C94U G120C,0.688
11,C88A U106A,-0.303
12,C88A U96G,-0.386
13,C88A U96C,-0.897
14,A91C C123A U133G,-1.07
15,C88U U116C G120C,-0.613
16,A83C A84C A119G,0.957
17,U87C C99U U129G,-3.62
18,U87G G113C,-2.26
19,A95G C98U G113A A118G,-3.57
20,C89A G117C,-4.96
21,C89A G117U,-4.53
22,C89A G117A,-1.73
23,A91C G127C,-2.93
24,U87A C99U,-3.14

row,Variant,polymerase ribozyme fitness (log ratio)
1,U92G C104G,-7.29
2,C94U C115A,-0.137
3,A84U G93A,-1.11
4,A84U G93U,-1.44
5,U87G U129C,0.0365
6,G93C U96C G110A A118C,-2.57
7,G93U U112A,0.151
8,A91U G120U,-1.93
9,A90C U106A A108G,-2.24
10,G93C C101A C123A U125A U131A,-1.5
11,C86U C102A U112A C114A,-4.14
12,A91U G128U,-3.95
13,A83C U126C,-1.26
14,U87G C94A G120U,-0.366
15,C89G G113C G122U,-2.99
16,A83U G127U,-1.08
17,A84G C85U,0.384
18,C88G U106G,-2.4
19,G93U A95U C97G G120U C124U,-6.74
20,G93C A121U,1.21
21,C85U U109G,-5.2
22,C88U A119G,1.04
23,C88U G120A G128A,-1.29
24,C86A U116G,-2.89

row,Variant,polymerase ribozyme fitness (log ratio)
1,C85G C88U,-0.339
2,C88A A111U,-4.33
3,G93U U96G,-1.89
4,C85U A118G,-0.773
5,C85A G113A A121C,-2.05
6,C85A A95C,-2.61
7,A84C C98U,-1.5
8,U96A G128C,-3.28
9,U87A G120A,0.663
10,C89U A108G C114U,-4.44
11,A91C C114G,-2.5
12,G93C A100C,-2.34
13,C86A C101U,-0.0895
14,G93A C102A,-1.81
15,G93A C102U,-2.73
16,U92C U106G G135C,-3.67
17,C85G C114U,-3.59
18,C85G C94U C97U G120C,-0.74
19,U92C G117A,-2.67
20,A90G A119U,0.257
21,C89A G113C,-1.8
22,A83G A84G C99U,-5.16
23,C86U U112A C123U,0.628
24,A84U C115G,-3.83

row,Variant,polymerase ribozyme fitness (log ratio)
1,C89U C101A,-1.39
2,A95C A108G G110U,-4
3,A91G C102A C104A U109A,-5.59
4,C85U C124G,0.923
5,C86U G107U,-5.23
6,C86A U96C,-0.678
7,C88A C94A G117C,-5.02
8,C88G G128C,-3.43
9,A95U A103G,-6.8
10,G93A C101U,-1.15
11,A83G G110A,-1.35
12,G93A A118U U133A,0.0816
13,C85G C99U,-4.35
14,U87G A119G,1.67
15,A90C C102U,-4.08
16,C94G C123U,0.403
17,U92A G93C,-2.69
18,G93A A100G U112C U131A,-2.69
19,C89U G117A U129A,-3.55
20,C86A U132C U133A,-1.36
21,A95G C123G,1.72
22,C85G G110C,-4.96
23,A91G C101U G110A,-2.85
24,C89A G93A G120A,-1.81

row,Variant,polymerase ribozyme fitness (log ratio)
1,G93U C101A G113A C115G,-4.73
2,A95U A119U U125A G127U,-2.7
3,U96A C115A,-3.09
4,C88G,-0.581
5,C88U,-0.0459
6,C88A,-0.325
7,U87C C99A C101U U116C,-6.81
8,U87A C89U C123A C124G,1.56
9,C86G C88U A105G,-4.95
10,G93U G122A,-1.55
11,C88G G120A A121C G135U,-0.939
12,A83C,-0.225
13,A83G,-0.489
14,A83U,-0.119
15,C85U G120U,0.655
16,C85U G120C,0.93
17,A95G C102U,-1.91
18,A84U A90U,-1.49
19,A83C C97A,-3.66
20,U96A C123G,0.707
21,A91G C104A,-2.34
22,C94A U112C U126G,-0.847
23,C85A A121C,0.793
24,U92A U131G,-2.59

row,Variant,polymerase ribozyme fitness (log ratio)
1,C89A G128C,-4.25
2,C86A A95G,-0.915
3,C85A C115U,-2.7
4,G93U,-1.12
5,G93A,-0.498
6,G93C,-0.928
7,A84G G122A,-1.44
8,G93U A121U,1.23
9,U87A C123A,0.223
10,C88U C94U,-1.32
11,C85G U106G,-2.45
12,C85U U112A,0.416
13,U87A C102U C104A,-1.05
14,U87G U109A,-3.08
15,G93C U112A,0.679
16,U92A C101A,-3.47
17,C86U A100U G110A U129G,-3.54
18,C86G A111G G135A,-0.134
19,C89U C124U,1.37
20,C89U C124A,0.152
21,A84U C86A U125G,-1.97
22,C94U C101A,-1.52
23,U87A G110C,-3.47
